Results: patent publication US20140037642A1 (Amgen, published 2014)
Where a chain is given by its changes, count along the chain named.

B1: L51H51 phage-displayed Fab (Fab, V domains shown)
VH: QVQLVQSGAEVKKPGSSVKVSCKASGGTFSSYAISWVRQAPGQGLEWMGIINPSGGSTSYAQKFQGRVTITRDTSASTAYMELSSLRSEDTAVYYCARDRWRYDAFDIWGQGTMVTVSS
VL: NFMLTQPHSVSESPGKTVTISCTGSGGNIASNYVQWYQQRPGRAPTTVIYEDNRRPSGVPDRFSGSIDSSSNSASLTISGLKTEDEADYYCQSYDPYNRVFGGGTKLTVL
B2: L4H4 phage-displayed Fab (Fab, V domains shown)
VH: QVQLQQWGAGLLKPSETLSLTCAVSGGSFSGYYWSWIRQPPGKGLEWIGEINHSGSTNYNRSLKSRVTISVDTSKNQFSLKLSSVTAADTAVYYCARLSYGSGVDYWGQGTLVTVSS
VL: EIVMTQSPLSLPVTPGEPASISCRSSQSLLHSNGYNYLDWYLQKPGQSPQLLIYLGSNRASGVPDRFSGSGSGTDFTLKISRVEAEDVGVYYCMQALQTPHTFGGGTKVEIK
B3: L11H11 phage-displayed Fab (Fab, V domains shown)
VH: QLQLQESGPGLVKPSGTLSLTCAVSGGSISSSNWWSWVRQPPGKGLEWIGEIYHSGSTNYNPSLKSRVTISVDKSKNQSSLKLSSVTAADTAVYYCARANRDDAFDIWGQGTMVTVSS
VL: EIVLTQSPLSLPVTPGEPASISCRSSQSLLHSNGYNYLNWYLQKPGQSPQLLIYLGSNRASGVPDRFSASGSGTDFTLKISRVEAEDVGVYYCMQALQTPITFGQGTRLEIK
B4: L9H9 phage-displayed Fab (Fab, V domains shown)
VH: EVQLVESGPGLVKPSGTLSLTCAVSGGSISSSNWWSWVRQPPGKGLEWIGYIYYSGSTYYNPSLKSRVTMSVDTSKNQFSLKLSSVTAADTAVYYCARWSYLDAFDIWGQGTMVTVSS
VL: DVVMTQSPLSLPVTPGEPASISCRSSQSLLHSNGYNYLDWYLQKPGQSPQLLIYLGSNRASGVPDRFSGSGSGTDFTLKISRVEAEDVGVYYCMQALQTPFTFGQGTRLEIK
B5: L52H52 phage-displayed Fab (Fab, V domains shown)
VH: EVQLVESGPGLVKPSGTLSLTCAVSGGSISSSNWWSWVRQPPGKGLEWIGEIYHSGSTNYNPSLKSRVTISVDKSKNQFSLKLSSVTAADTAVYYCAREKSGMDVWGQGTTVTVSS
VL: EIVMTQSPLSLPVTPGEPASISCRSSQSLLHTNGYDYLDWYLQKPGQSPQLLIYLGSTRASGVPDRFSGSGSGTDFTLKISRVEAEDVGVYYCMQAFQTPLTFGGGTKMEIK
B6: L26H26 phage-displayed Fab (Fab, V domains shown)
VH: QVQLQESGPGLVKPSGTLSLTCAVSGGSISSSNWWSWVRQPPGKGLEWIGEIYHSGSTNYNPSLKSRVTISVDKSKNQFSLKLSSVTAADTAVYYCARYSYGTVGIDYWGQGTLVTVSS
VL: B5 VL with E1D, I2V, T32S, D36T, T58N, A85P, F97L, Q98E, T99M, M109V
B7: L5H5 phage-displayed Fab (Fab, V domains shown)
VH: QLQLQESGPGLVKPSQTLSLTCTVSGGSISSSNWWSWVRQPPGKGLEWIGEIYHSGSTNYNPSLKSRVTISVDKSKNQFSLKLSSVTAADTAVYYCARYSSSRNDAFDIWGQGTMVTVSS
VL: not shown
B8: L12H12 phage-displayed Fab (Fab, V domains shown)
VH: EVQLVESGGGLVQPGGSLRLSCAASGFTFSSYAMSWVRQAPGKGLEWVSAISGSGGSTYYADSVKGRFTISRDNSKNTLYLQMNSLSADDTAVYFCASGGWYGDYFDYWGQGTLVTVSS
VL: NFMLTQPHSVSESPGKTVTISCTRSSGSIASNYVQWYQQRPGSSPTTVIYEDNQRPSGVPDRFSGSIDSSSNSASLTISGLKTEDEADYYCQSYDSSNQRVFGGGTKLTVL
B9: L8H8 phage-displayed Fab (Fab, V domains shown)
VH: QVQLQQWGPGLVKPSGTLSLTCAVSGGSISSSNWWSWVRQPPGKGLEWIGEIYHSGSTNYNPSLESRVTISVDKSKNQFSLKLSSVTAADTAVYYCARDRYYGMDVWGQGTTVTVSS
VL: not shown
B10: L16H16 phage-displayed Fab (Fab, V domains shown)
VH: B6 VH with Y99W, S100T, Y101G, G102R, V104D, G105A, I106F, Y108I, L114M
VL: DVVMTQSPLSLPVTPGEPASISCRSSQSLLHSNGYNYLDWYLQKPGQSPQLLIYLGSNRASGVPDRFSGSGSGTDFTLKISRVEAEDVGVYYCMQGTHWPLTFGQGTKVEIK
B11: L13H13 phage-displayed Fab (Fab, V domains shown)
VH: QVQLQESGPGLVKPSETLSLTCTVSGGSISSSNWWSWVRQPPGKGLEWIGEIYHSGSTNYNPSLKSRVTISVDKSKNQFSLKLSSVTAADTAVYYCAREGNRTVTSAFDIWGQGTMVTVSS
VL: not shown

The binders below were run against T1, hu INSR(ECD)-muIgG1Fc (human; mouse, Glycosylated. 87% of the preparation was cleaved between the alpha and beta chains (RKRR site), which stay disulfide-linked. Dimer through the receptor and the murine Fc.) (assay: phage Fab ELISA, plate coated with INSR-mFc at 5 µg/ml).
T1 construct: 87% processed into α and β chains; also called INSR(ECD)-muFc; INSR-mFc
Method: (§1) In 96-well 2-ml deep-well blocks, 480 μl/well 2xYT-CG broth was inoculated with 20 μl of overnight cultures of the individual clones, then incubated at 37° C., 300 rpm for 3 hours. To each well, 50 μl of 1:3 diluted M13KO7 helper phage were added to infect the cells. The block was incubated at 37° C. without shaking for 30 minutes, and then shaken gently for another 30 minutes at 150 rpm. The block was centrifuged at 3600 rpm for 20 minutes to pellet the infected cells. The cell pellet in each well was suspended into 480 μl of 2xYT-CK (2xYT broth containing 100 μg/ml carbenicillin and 40 μg/ml kanamycin), and incubated at 30° C. overnight for about 20 hours. The cell debris was separated by centrifugation at 3600 rpm for 20 minutes. The rescued phage supernatant was used in the phage ELISA to check for IGF-1R-specific, INSR-cross reactive, or mouse Fc binding of individual clones.
(§2) The coated plates were washed 3× with 300 μl/well of PBS. The washed plates were blocked with 300 μl/well 2% MPBS at room temperature for one hour. Meanwhile, rescued phages of individual clones were pre-blocked by mixing 170 μl of rescued phage with 170 μl of 4% MPBS. The blocked plates were washed 5× with 300 μl/well TBST (TBS: 10 mM Tris-HCl, pH 7.5, 1 mM EDTA, 150 mM NaCl; Tween-20. 0.1%). 100 μl/well of pre-blocked phage dilutions were distributed to each set of coated plate, which were incubated at room temperature on a rocker for 90 minutes. The plates were washed 5× with 300 μl/well TBST. 100 μl/well of anti-M13-HRP in 2% MPBS (1:3000 dilution, catalog number 27-9421-01, Amersham Pharmacia Biotech) were distributed, and plates were incubated at room temperature on rocker for one hour. The plates were washed 5× with 300 μl/well TBST. 100 μl/well of the substrate 1-Step™ ABTS (Pierce Biotechnology, Rockford, Ill., catalog number 37615) were added. Plates were incubated for one hour. OD₄₀₅ was measured for signal detection.

Binder	binding result
B1	no binding
B2	no binding
B3	no binding
B4	no binding
B5	no binding
B6	no binding
B7	no binding
B8	no binding
B9	no binding
B10	no binding
B11	no binding

What follows are binders tested against T2, hu IGF-1R(ECD)-C3-muIgG1Fc (human; mouse, Glycosylated. 60% of the preparation was cleaved between the alpha and beta chains (RKRR, mature positions 708-711), which stay disulfide-linked; 40% was unprocessed. Dimer through the …) (assay: phage Fab ELISA, plate coated with IGF-1R-C3-mFc at 5 µg/ml).
T2 construct: 60% of the product was processed into α and β chains, 40% unprocessed; also called IGF-1R(ECD)-C3-muFc; IGF-1R-C3-muFc
Method: as §1, §2

Binder	binding result
B1	binds
B2	binds
B3	binds
B4	binds
B5	binds
B6	binds
B7	binds
B8	binds
B9	binds
B10	binds
B11	binds
